Measurements taken from patent US6653533 (PURDUE RESEARCH FOUNDATION, dated 1997).

Target: T1, Pti6 (Solanum lycopersicum (Tomato) …, UniProt O04682 1-248, limits assumed)
T1 construct: Tested as a yeast two-hybrid prey expressed from vector pJG4-5; also called prey of Pti6 (in pJG4-5)
Test: yeast two-hybrid (LEU2 and lacZ reporters), Bicoid bait in pEG202, prey in pJG4-5
Description: Figure 2: FIG. 2 sets forth results of the Experiment described in Example 1 herein. Briefly, EGY48 yeast cells containing a prey of Pti4, Pti5 or Pti6 (in pJG4–5), and a bait of Pto, pto or Bicoid (in pEG202) were grown on galactose Ura⁻His⁻Trp⁻X-Gal medium. The plates were incubated at 30° C. for three days and photographed. Four independent, representative colonies are shown for each bait/prey combination.
Yeast strains carrying the Pto bait and a prey of Pti4, Pti5 or Pti6 grew in the absence of leucine, indicative of the LEU2 reporter gene activation. When grown on X-Gal plates, these yeast cells were blue as a result of the lacZ reporter gene activation. As determined by the intensity of blue color, the strength of interaction of Pto with these three preys is in the order of Pti6>Pti4>Pti5.

T1 sequence (O04682 whole entry): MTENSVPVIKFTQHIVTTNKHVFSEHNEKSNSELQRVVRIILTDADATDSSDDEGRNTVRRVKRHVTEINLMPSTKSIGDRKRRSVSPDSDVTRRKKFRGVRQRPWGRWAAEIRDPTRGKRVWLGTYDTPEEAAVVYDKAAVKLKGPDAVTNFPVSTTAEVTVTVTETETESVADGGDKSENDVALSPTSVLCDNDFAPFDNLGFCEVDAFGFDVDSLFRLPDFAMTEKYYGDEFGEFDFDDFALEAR

binding result: no binding
B1: Bicoid (other, UniProt P09081 2-160, looked up)
chain: AQPPPDQNFYHHPLPHTHTHPHPHSHPHPHSHPHPHHQHPQLQLPPQFRNPFDLLFDERTGAINYNYIRPYLPNQMPKPDVFPSEELPDSLVMRRPRRTRTTFTSSQIAELEQHFLQGRYLTAPRLADLSAKLALGTAQVKIWFKNRRRRHKIQSDQHK
notes: Control bait expressed from vector pEG202; also called arbitrary bait Bicoid (in pEG202)
